From patent publication US20140161875A1 (KATHOLIEKE UNIVERSITEIT LEUVEN, published 2014)

How the values were obtained:
endogenous mouse tau = endogenous mouse tau (mouse, UniProt P10637-2 2-430, limits assumed); test: Western blot of mouse brain extracts
Source text: FIG. 3: Analysis of the novel mAbs on samples of transgenic mice and human brain. A) Western blot analysis of brain extracts from control mice (FVB), knock-out mice and transgenic (Tg) mice expressing a clinical mutant of human tau (Tau-P301L). The age of the mice is indicated between brackets. The arrow on the second blot indicates high molecular weight tau complexes. The antibodies used are ADx215 (YT1.15), ADx210 (YT1.10) and the commercial phosphorylation-specific antibody AT100 (exposure time of 30 min for ADx210 (YT1.10) and AT100, and 30 sec for ADx215 (YT1.15)). B) Tau epitope sequence recognized by ADx201 (YT1.1) and ADx215 (YT1.15). C) Western blot analysis of brain extracts from brain extracts obtained from a healthy person (non-AD) and an AD patient using the Mab ADx215 (YT1.15) (exposure time 2 min.). The brain regions from which the extracts were prepared are indicated. As control served brain extracts obtained from the hippocampus and cortex of the tau Tg mice Tau22. The arrow indicates high molecular weight tau complexes present in samples from AD brain. […]
Furthermore, the high affinity Mab ADx215 (YT1.15) specifically detected high molecular weight tau complexes in brain extracts of both Tg mice (Fig. A, C) and a late stage AD patient (data provided by L. Buée, Inserm U837, U. Lille, France; Fig. C).

[1] = molecular target: T1, recombinant HIS-tagged tau obtained from E. coli (UniProt P10636-8 1-441, limits assumed); test: Western blot
T1 construct: also called E. coli-produced recombinant tau; recombinant non-phosphorylated tau purified from bacteria
Source text: FIG. 2: Selectivity for tau aggregates and phosphorylation dependency of anti-tau mAbs of the invention. A) Western blot analysis of recombinant HIS-tagged tau obtained from E. coli and protein extracts obtained from control and humanized yeast strains using the commercial pan-tau antibody Tau-5 and ADx210 mAb as indicated. The number between brackets refers to the exposure time. The solid bar refers to high molecular weight and oligomeric tau and the small arrow in the picture of ADx210 to a presumable tau dimer. B) Western blot analysis of purified tau obtained from the pho85Δ strain before and after treatment with shrimp alkaline phosphatase (SAP) following different time intervals as indicated. Recombinant HIS-tagged tau obtained from E. coli served as control. The pan-tau antibody Tau-5, the phosphorylation-specific antibody AT270, and the antibody BT2 recognizing non-phosphorylated tau, were used in addition to the novel mAbs ADx215 and ADx210.
The phosphorylation specificity was initially tested on extracts obtained from the humanized wild type yeast strain and its congenic mds1Δ and pho85Δ mutants that display reduced and increased tau phosphorylation. Recombinant tau produced by E. coli served as control.

endogenous mouse tau, sequence (P10637 other isoform, or with tags, fused parts or gaps limits assumed): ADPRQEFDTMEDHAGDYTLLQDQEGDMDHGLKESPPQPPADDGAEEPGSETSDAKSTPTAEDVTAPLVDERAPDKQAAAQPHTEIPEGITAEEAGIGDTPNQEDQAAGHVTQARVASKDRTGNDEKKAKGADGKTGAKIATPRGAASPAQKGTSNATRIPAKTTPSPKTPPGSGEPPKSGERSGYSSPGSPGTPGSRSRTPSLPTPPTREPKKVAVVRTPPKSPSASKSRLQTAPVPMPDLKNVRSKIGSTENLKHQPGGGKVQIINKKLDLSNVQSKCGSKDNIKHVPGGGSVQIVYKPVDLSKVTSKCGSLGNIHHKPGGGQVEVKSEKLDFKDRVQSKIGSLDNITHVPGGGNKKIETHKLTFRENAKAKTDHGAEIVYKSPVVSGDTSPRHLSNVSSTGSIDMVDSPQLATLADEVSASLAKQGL

Binder	binding result (endogenous mouse tau)	binding result [1]
ADx215 monoclonal antibody (hybridoma LMBP 9679CB) (antibody, IgG1, V domains shown, also called YT1.15) VH: EVQLVESGGDLVKPGGSLKLSCAASGFNFRSYGMSWVRQTPDKRLEWVATISSGGNYTYYPDSVKGRFTISRDNAKNILYLQMSSLNSEDTALYYCTYSFYGAFDYWGQGTTLTVSS VL: DVLMTQTPLSLPVSLGDQASISCRSSQNILHSNGNTYLEWYLQKPGQSPKLLIYKVSSRFSGVPDRFSGSGSGTDFTLKITRVEAEDLGVYYCFQGSLVPWTFGGGTKLEIRR	no binding	
ADx210 monoclonal antibody (hybridoma LMBP 8347CB) (antibody, V domains shown, Mouse hybridoma mAb (BALB/C immunised with yeast-purified tau); constant regions are not; also called YT1.10; IGH-593) VH: VQLQESGGGLVQPGGSRKLSCAASGFTFSNFGMHWVRQAPDKGLEWVAYITSGSSSIYYADTVKGRFTISRDNPKNTLFLQMTSLRSEDTAMYYCARSVPYGYGLFDYWGRGTTLTVSS VL: DVLMTQIPVSLSVSLGDQASISCRSSESIVHSSGKTYLEWYLQKPGQSPKLLIYEVSNRFSGVPDRFSGSGSGTDFTLKISRVEAEDLGVYYCFQGSHVPWTFGGGTKLEIKR	no binding	no binding
